Measured values: patent publication US20240131059A1 (FUNDACI INSTITUT D INVESTIGACI BIOM DICA DE BELLVITGE …, published 2024)

B1: mature recombinant polypeptide forming PRP6-HO7 (single monomer chain, 14.3 kDa) (other)
chain: HHHHHHLCCPEPKLNNGEITQHRKSRPANHCVYFYGDEISFSCHETSRFSAICQGDGTWSPRTPSCGDETPEGCEQVLTGKRLMQCLPNPEDVKMALEVYKLSLEIEQLELQRDSARQSTLDKEL
notes: Same chain as in m1; also called PRP6-HO7 monomer chain
B2: PRP6-NO, recombinant polypeptide formed by the CCP6 domain of C4BP(β-) fused at its C-terminus to a mutated C4BP(β-) oligomerization domain unable to … (other)
chain: HHHHHHLCCPEPKLNNGEITQHRKSRPANHCVYFYGDEISFSCHETSRFSAICQGDGTWSPRTPSCGDETPEGAEQVLTGKRLMQALPNPEDVKMALEVYKLSLEIEQLELQ
notes: Produced in Expi293 cells; Monomer of 12.7 kDa

Experiments:
[1] = target: the molecule itself; test: SDS-PAGE under reducing and non-reducing conditions, Coomassie Blue staining and Western blot (self-association into the heptamer)
Source text: (§1) For Western blot analysis, PRP-based proteins were resolved on 4-12% gradient SDS-PAGE (NuPAGE Bis-Tris 4-12% Mini Gels, Invitrogen) under reducing and non-reducing conditions and transferred to PVDF membrane. After blocking, the membrane was probed with primary antibodies: 1:2000 dil. polyclonal PK9008 rabbit anti-C4BP (a gift from Anna Blom), and 1:4000 dil. 6×His Monoclonal Antibody (Clontech, Mountain View, CA, USA), followed by the addition of 1:2000 dil. polyclonal Goat Anti-Rabbit IgG HRP (P0448, Dako, Agilent, Santa Clara. CA, USA), and 1:2000 dil. polyclonal Goat Anti-Mouse IgG HRP (P0447, Dako, Agilent, Santa Clara, CA, USA), respectively. Detection was performed with enhanced chemiluminescence (ECL) (Pierce, ThermoFischer, Carlsbad, CA, USA) using ChemiDoc Imager (Bio-Rad, Hercules, CA, USA).
(§2) In this regard, and to assess whether the C4BP CCP6 domain alone as a monomer or, conversely, in an heptavalent oligomerized form analogous to its physiological origin, would preserve the anti-inflammatory and immunomodulatory activities ascribed to PRP-HO7 (Olivar et al. (2013) J. Immunol. 190: 2857-2872). PRP6-HO7 and PRP6-NO were produced in HEK293 cells and were purified from its supernatants (FIG. 3). […]

[2] = target: the molecule itself; test: SDS-PAGE under non-reducing conditions, Coomassie Blue staining and Western blot (self-association)
Source text: as §1, §2

Protein | binding result [1] | binding result [2]
B1 | binds | –
B2 | – | no binding
